The text below walks through data of paper PMC8749432.

Assay [1] addresses HIV-1 BG505.W6M.B1 envelope glycoprotein I423A on SHIV-BG505 virions (HIV-1).
The target in assay [2] is HIV-1 BG505.W6M.B1 envelope glycoprotein A204E on SHIV-BG505 virions (HIV-1).
For assay [3], the target named is HIV-1 BG505.W6M.B1 envelope glycoprotein L193A on SHIV-BG505 virions (HIV-1).

For “Soluble rhesus CD4 (Met1-Trp390) with C-terminal 6×His tag (from UniProt P16003 26-390) (domain or fragment)”, the neutralisation of SHIV-BG505 infection of TZM-bl cells by soluble rhCD4; sensitivity against WT SHIV (fold more sensitive than WT SHIV) in assay [1] is 30; in assay [2] it was 1500; in assay [3], 3.
